Experimental data from patent publication US11306156.

Legend:
[1] = molecular target: D3H44 Fab heavy chain L124E_L143E_K145M, C-terminal ABD2-His6 tag; test: LCCA set 9259 (co-expression; SPR read-out of light-chain tags; L1:L2 DNA 1:3, normalized to 1:1); competing light chain m17
[2] = molecular target: D3H44 Fab heavy chain L124E_L143E_K145M, C-terminal ABD2-His6 tag; test: LCCA co-expression, SPR tag read-out; DNA 1:3 norm. to 1:1; competing light chain m13
[3] = molecular target: D3H44 Fab heavy chain L124E_L143E_K145T, C-terminal ABD2-His6 tag; test: as above
[4] = molecular target: D3H44 Fab heavy chain L124R_Q179K, C-terminal ABD2-His6 tag; test: as above
[5] = molecular target: D3H44 Fab heavy chain L124R_S186K, C-terminal ABD2-His6 tag; test: LCCA set 9473 (co-expression; SPR read-out of light-chain tags; L1:L2 DNA 1:3, normalized to 1:1); competing light chain m16
[6] = molecular target: D3H44 Fab heavy chain L124E_L143E_K145T, C-terminal ABD2-His6 tag; test: LCCA (co-expression, SPR read-out of light chain tags), L1:L2 DNA 1:3 normalised to 1:1; competitor m17
[7] = molecular target: D3H44 Fab heavy chain L124R_S186K, C-terminal ABD2-His6 tag; test: as above
[8] = molecular target: D3H44 Fab heavy chain L124R_S186R, C-terminal ABD2-His6 tag; test: as above
[9] = molecular target: D3H44 Fab heavy chain L124E_L143E_K145M, C-terminal ABD2-His6 tag; test: LCCA set 9263 (co-expression; SPR read-out of light-chain tags; L1:L2 DNA 1:3, normalized to 1:1); competing light chain m14
[10] = molecular target: D3H44 Fab heavy chain L124E_L143E_K145T, C-terminal ABD2-His6 tag; test: LCCA co-expression, SPR tag read-out; DNA 1:3 norm. to 1:1; competing light chain m11
[11] = molecular target: D3H44 Fab heavy chain L124R_Q179K, C-terminal ABD2-His6 tag; test: as above
[12] = molecular target: D3H44 Fab heavy chain L124E_L143E_K145M, C-terminal ABD2-His6 tag; test: LCCA set 9257 (co-expression; SPR read-out of light-chain tags; L1:L2 DNA 1:3, normalized to 1:1); competing light chain m15
[13] = molecular target: D3H44 Fab heavy chain L124E_L143D_K145T, C-terminal ABD2-His6 tag; test: LCCA set 9217 (co-expression; SPR read-out of light-chain tags; L1:L2 DNA 1:3, normalized to 1:1); competing light chain m16
[14] = molecular target: D3H44 Fab heavy chain L124R_S186K, C-terminal ABD2-His6 tag; test: LCCA set 9451 (co-expression; SPR read-out of light-chain tags; L1:L2 DNA 1:3, normalized to 1:1); competing light chain m15
[15] = molecular target: D3H44 Fab heavy chain L124E_L143E_K145T, C-terminal ABD2-His6 tag; test: LCCA set 9298 (co-expression; SPR read-out of light-chain tags; L1:L2 DNA 1:3, normalized to 1:1); competing light chain m17
[16] = molecular target: D3H44 Fab heavy chain L124E_L143E_K145T, C-terminal ABD2-His6 tag; test: LCCA (co-expression, SPR read-out of light chain tags), L1:L2 DNA 1:3 normalised to 1:1; competitor m16
[17] = molecular target: D3H44 Fab heavy chain L124E_L143D_K145T, C-terminal ABD2-His6 tag; test: as above
[18] = molecular target: D3H44 Fab heavy chain L124R_Q179K, C-terminal ABD2-His6 tag; test: as above
[19] = molecular target: D3H44 Fab heavy chain L124R_S186R, C-terminal ABD2-His6 tag; test: as above
[20] = molecular target: D3H44 Fab heavy chain L124R_Q179K, C-terminal ABD2-His6 tag; test: LCCA set 9384 (co-expression; SPR read-out of light-chain tags; L1:L2 DNA 1:3, normalized to 1:1); competing light chain m17
[21] = molecular target: D3H44 Fab heavy chain L124E_L143D_K145T, C-terminal ABD2-His6 tag; test: LCCA set 9214 (co-expression; SPR read-out of light-chain tags; L1:L2 DNA 1:3, normalized to 1:1); competing light chain m15
[22] = molecular target: D3H44 Fab heavy chain L124E_L143D_K145M, C-terminal ABD2-His6 tag; test: LCCA set 9176 (co-expression; SPR read-out of light-chain tags; L1:L2 DNA 1:3, normalized to 1:1); competing light chain m15
[23] = molecular target: D3H44 Fab heavy chain L124R_S186R, C-terminal ABD2-His6 tag; test: LCCA set 9505 (co-expression; SPR read-out of light-chain tags; L1:L2 DNA 1:3, normalized to 1:1); competing light chain m15
[24] = molecular target: D3H44 Fab heavy chain L124E_L143D_K145M, C-terminal ABD2-His6 tag; test: LCCA (co-expression, SPR read-out of light chain tags), L1:L2 DNA 1:3 normalised to 1:1; competitor m13
[25] = molecular target: D3H44 Fab heavy chain L124E_L143E_K145M, C-terminal ABD2-His6 tag; test: as above
[26] = molecular target: D3H44 Fab heavy chain L124E_L143D_K145T, C-terminal ABD2-His6 tag; test: as above
[27] = molecular target: D3H44 Fab heavy chain L124R_Q179K, C-terminal ABD2-His6 tag; test: as above

D3H44 light chain Q124K_V133G_S176R_T178K, N-terminal HA or FLAG tag
H1L1:H1L2 normalized median ratio (H1L1 part) [1]: 84% | H1L1:H1L2 normalized median scalar value ln(r1/f1) [1]: 1.67 | H1L1:H1L2 normalized median ratio (% (ratio normalized to 100)) [2]: 88 | H1L1:H1L2 normalized median scalar value ln(r1/f1) [2]: 1.95 | H1L1:H1L2 normalized median ratio (% (ratio normalized to 100)) [3]: 89 | H1L1:H1L2 normalized median scalar value ln(r1/f1) [3]: 2.08 | H2L2:H2L1 normalized median ratio (% (ratio normalized to 100)) [4]: 4 | H2L2:H2L1 normalized median ratio (H2L1 part) [5]: 7% | H1L1:H1L2 normalized median ratio [6]: 87% | H1L1:H1L2 normalized median scalar value ln(r1/f1) [6]: 1.89 | H2L2:H2L1 normalized median ratio [7]: 7% | H2L2:H2L1 normalized median ratio [8]: 6% | H1L1:H1L2 normalized median ratio (H1L1 part) [9]: 88% | H1L1:H1L2 normalized median scalar value ln(r1/f1) [9]: 1.95 | H1L1:H1L2 normalized median ratio (% (ratio normalized to 100)) [10]: 89 | H1L1:H1L2 normalized median scalar value ln(r1/f1) [10]: 2.12 | H2L2:H2L1 normalized median ratio (% (ratio normalized to 100)) [11]: 4 | H1L1:H1L2 normalized median ratio (H1L1 part) [12]: 84% | H1L1:H1L2 normalized median scalar value ln(r1/f1) [12]: 1.65 | H1L1:H1L2 normalized median ratio (H1L1 part) [13]: 82% | H1L1:H1L2 normalized median scalar value ln(r1/f1) [13]: 1.52 | H2L2:H2L1 normalized median ratio (H2L1 part) [14]: 7% | H1L1:H1L2 normalized median ratio (H1L1 part) [15]: 88% | H1L1:H1L2 normalized median ratio [16]: 89% | H1L1:H1L2 normalized median scalar value ln(r1/f1) [16]: 2.08 | H1L1:H1L2 normalized median ratio [17]: 81% | H2L2:H2L1 normalized median ratio [18]: 4% | H2L2:H2L1 normalized median ratio [19]: 8% | H2L2:H2L1 normalized median ratio (H2L1 part) [20]: 8% | H1L1:H1L2 normalized median ratio (H1L1 part) [21]: 85% | H1L1:H1L2 normalized median scalar value ln(r1/f1) [21]: 1.71 | H1L1:H1L2 normalized median ratio (H1L1 part) [22]: 83% | H1L1:H1L2 normalized median scalar value ln(r1/f1) [22]: 1.62 | H2L2:H2L1 normalized median ratio (H2L1 part) [23]: 6% | H1L1:H1L2 normalized median ratio [24]: 85% | H1L1:H1L2 normalized median scalar value ln(r1/f1) [24]: 1.76 | H1L1:H1L2 normalized median ratio [25]: 85% | H1L1:H1L2 normalized median scalar value ln(r1/f1) [25]: 1.77 | H1L1:H1L2 normalized median ratio [26]: 84% | H1L1:H1L2 normalized median scalar value ln(r1/f1) [26]: 1.66 | H2L2:H2L1 normalized median ratio [27]: 4%
